What was measured:
Assay in all cases: single-molecule TIRF co-localization
[1] = molecular target: Kif3A^ΔC89-Kif3B (human, UniProt Q9Y496 1-610; O15066 1-747, SNAPf tag labeled with Alexa 647)
[2] = molecular target: Kif3A-Kif3B^ΔC90 (human, UniProt Q9Y496 1-699; O15066 1-657, SNAPf tag labeled with Alexa 647)
[3] = molecular target: Kif3A-Kif3B^ΔC114 (human, UniProt Q9Y496 1-699; O15066 1-633, SNAPf tag labeled with Alexa 647)
Chain of Kif3A-Kif3B^ΔC114 (Q9Y496 whole entry, stated change not applied, chain 1 of 2): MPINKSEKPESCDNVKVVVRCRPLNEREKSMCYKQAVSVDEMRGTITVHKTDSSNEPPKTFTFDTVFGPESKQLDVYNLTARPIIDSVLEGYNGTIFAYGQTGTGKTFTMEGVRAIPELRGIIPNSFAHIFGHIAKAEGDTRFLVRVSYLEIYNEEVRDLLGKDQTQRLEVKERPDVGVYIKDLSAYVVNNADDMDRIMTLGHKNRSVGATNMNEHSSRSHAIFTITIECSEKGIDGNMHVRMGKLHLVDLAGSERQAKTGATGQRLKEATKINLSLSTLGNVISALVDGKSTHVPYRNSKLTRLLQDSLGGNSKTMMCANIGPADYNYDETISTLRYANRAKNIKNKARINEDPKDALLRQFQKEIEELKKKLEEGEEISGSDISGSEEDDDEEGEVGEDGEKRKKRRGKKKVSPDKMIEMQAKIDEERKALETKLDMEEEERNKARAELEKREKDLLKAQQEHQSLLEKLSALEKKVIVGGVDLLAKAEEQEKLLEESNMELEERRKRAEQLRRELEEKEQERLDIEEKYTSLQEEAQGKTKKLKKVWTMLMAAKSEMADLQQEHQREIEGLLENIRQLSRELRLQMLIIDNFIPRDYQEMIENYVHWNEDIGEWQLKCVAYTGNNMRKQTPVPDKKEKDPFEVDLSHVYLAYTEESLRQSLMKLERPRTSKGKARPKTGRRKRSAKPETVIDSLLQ
Chain of Kif3A-Kif3B^ΔC114 (O15066 1-633, stated change not applied, chain 2 of 2): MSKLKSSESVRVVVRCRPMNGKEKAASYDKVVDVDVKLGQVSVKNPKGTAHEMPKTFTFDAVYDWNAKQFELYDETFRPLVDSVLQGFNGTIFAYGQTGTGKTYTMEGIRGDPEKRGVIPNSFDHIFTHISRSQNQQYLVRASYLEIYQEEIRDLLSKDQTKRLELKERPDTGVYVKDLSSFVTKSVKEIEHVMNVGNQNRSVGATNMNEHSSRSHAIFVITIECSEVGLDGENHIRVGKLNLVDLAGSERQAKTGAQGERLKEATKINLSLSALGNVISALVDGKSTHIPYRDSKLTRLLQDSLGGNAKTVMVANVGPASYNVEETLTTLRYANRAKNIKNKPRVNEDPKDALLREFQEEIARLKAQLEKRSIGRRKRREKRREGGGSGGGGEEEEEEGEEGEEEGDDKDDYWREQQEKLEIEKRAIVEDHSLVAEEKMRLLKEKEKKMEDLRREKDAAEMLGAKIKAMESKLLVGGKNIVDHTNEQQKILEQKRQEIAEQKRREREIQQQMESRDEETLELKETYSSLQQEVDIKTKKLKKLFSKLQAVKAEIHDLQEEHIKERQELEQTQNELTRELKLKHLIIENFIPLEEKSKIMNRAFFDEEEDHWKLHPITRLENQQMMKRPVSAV

Chain of Kif3A-Kif3B^ΔC90 (Q9Y496 whole entry, stated change not applied, chain 1 of 2): as the sequence (Q9Y496 whole entry, stated change not applied, chain 1 of 2) above
Chain of Kif3A-Kif3B^ΔC90 (O15066 1-657, stated change not applied, chain 2 of 2): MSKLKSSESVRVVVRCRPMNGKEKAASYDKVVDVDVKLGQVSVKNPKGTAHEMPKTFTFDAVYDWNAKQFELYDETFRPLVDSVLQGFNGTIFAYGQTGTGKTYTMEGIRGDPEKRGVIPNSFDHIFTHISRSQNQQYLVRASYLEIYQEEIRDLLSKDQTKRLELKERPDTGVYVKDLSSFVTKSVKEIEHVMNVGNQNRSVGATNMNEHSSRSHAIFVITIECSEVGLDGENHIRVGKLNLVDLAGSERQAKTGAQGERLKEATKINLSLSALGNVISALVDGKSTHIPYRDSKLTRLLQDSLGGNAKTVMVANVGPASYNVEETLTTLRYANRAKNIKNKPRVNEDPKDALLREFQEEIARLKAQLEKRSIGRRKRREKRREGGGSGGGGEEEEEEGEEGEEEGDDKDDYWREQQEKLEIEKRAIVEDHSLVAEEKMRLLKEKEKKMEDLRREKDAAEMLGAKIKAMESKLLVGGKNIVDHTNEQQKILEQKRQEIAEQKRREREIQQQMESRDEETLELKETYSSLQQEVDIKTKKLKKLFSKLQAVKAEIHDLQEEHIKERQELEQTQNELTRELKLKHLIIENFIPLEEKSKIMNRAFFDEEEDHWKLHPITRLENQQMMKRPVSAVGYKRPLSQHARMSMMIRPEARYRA
Chain of Kif3A^ΔC89-Kif3B (Q9Y496 1-610, stated change not applied, chain 1 of 2): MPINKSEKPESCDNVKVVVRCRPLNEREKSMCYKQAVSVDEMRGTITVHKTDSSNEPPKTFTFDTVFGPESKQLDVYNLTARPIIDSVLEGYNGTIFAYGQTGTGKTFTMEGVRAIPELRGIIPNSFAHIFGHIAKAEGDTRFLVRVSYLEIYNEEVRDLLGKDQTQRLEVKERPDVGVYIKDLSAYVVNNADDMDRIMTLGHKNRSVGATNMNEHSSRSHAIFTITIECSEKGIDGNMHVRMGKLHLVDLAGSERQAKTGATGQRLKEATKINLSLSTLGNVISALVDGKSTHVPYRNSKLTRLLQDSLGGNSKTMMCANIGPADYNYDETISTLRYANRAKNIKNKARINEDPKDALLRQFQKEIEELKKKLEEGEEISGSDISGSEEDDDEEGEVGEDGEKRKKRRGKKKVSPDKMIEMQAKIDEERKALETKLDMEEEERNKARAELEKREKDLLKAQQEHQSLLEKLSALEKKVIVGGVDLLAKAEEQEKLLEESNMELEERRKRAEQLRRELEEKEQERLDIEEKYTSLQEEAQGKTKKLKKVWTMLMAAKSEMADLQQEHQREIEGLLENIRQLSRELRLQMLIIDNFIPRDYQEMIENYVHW
Chain of Kif3A^ΔC89-Kif3B (O15066 whole entry, stated change not applied, chain 2 of 2): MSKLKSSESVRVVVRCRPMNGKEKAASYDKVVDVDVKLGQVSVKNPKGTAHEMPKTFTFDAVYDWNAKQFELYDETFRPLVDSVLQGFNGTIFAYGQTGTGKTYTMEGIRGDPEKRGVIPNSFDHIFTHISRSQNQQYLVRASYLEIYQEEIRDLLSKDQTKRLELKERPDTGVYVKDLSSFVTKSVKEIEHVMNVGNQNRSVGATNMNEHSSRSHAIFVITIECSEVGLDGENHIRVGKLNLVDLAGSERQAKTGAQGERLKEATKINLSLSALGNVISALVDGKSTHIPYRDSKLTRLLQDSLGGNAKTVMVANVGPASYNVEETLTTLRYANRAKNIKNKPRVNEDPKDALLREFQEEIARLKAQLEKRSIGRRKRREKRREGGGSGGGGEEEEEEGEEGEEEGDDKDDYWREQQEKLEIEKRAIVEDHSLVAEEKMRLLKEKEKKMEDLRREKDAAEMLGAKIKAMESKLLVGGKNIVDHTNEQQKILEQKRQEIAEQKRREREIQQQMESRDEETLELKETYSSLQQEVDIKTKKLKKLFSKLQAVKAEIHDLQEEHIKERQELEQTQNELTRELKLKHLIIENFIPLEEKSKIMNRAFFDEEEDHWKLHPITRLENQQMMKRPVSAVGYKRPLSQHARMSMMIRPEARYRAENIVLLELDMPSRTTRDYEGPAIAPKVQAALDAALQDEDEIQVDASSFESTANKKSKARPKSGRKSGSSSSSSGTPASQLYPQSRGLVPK

B1: Kap3 (natural protein, human, UniProt Q92845 1-792, looked up)
chain: MQGEDARYLKRKVKGGNIDVHPSEKALIVHYEVEATILGEMGDPMLGERKECQKIIRLKSLNANTDITSLARKVVEECKLIHPSKLNEVEQLLYYLQNRRDSLSGKEKKEKSSKPKDPPPFEGMEIDEVANINDMDEYIELLYEDIPDKVRGSALILQLARNPDNLEELLLNETALGALARVLREDWKQSVELATNIIYIFFCFSSFSQFHGLITHYKIGALCMNIIDHELKRHELWQEELSKKKKAVDEDPENQTLRKDYEKTFKKYQGLVVKQEQLLRVALYLLLNLAEDTRTELKMRNKNIVHMLVKALDRDNFELLILVVSFLKKLSIFMENKNDMVEMDIVEKLVKMIPCEHEDLLNITLRLLLNLSFDTGLRNKMVQVGLLPKLTALLGNDNYKQIAMCVLYHISMDDRFKSMFAYTDCIPQLMKMLFECSDERIDLELISFCINLAANKRNVQLICEGNGLKMLMKRALKFKDPLLMKMIRNISQHDGPTKNLFIDYVGDLAAQISNDEEEEFVIECLGTLANLTIPDLDWELVLKEYKLVPYLKDKLKPGAAEDDLVLEVVIMIGTVSMDDSCAALLAKSGIIPALIELLNAQQEDDEFVCQIIYVFYQMVFHQATRDVIIKETQAPAYLIDLMHDKNNEIRKVCDNTLDIIAEYDEEWAKKIQSEKFRWHNSQWLEMVESRQMDESEQYLYGDDRIEPYIHEGDILERPDLFYNSDGLIASEGAISPDFFNDYHLQNGDVVGQHSFPGSLGMDGFGQPVGILGRPATAYGFRPDEPYYYGYGS
modifications: SNAPf tag labeled with TMR in the co-localization assay
[1]
  percent of Kif3AB molecules with Kap3 co-localized: 26%
[2]
  percent of Kif3AB molecules with Kap3 co-localized: 62%
[3]
  percent of Kif3AB molecules with Kap3 co-localized: 50%
